From US20050282181A1 (published 2005)

Biological target: T1, biotinylated soluble human IL-1RI ectodomain (human, UniProt P14778 18-336, biotinylated with EZ-Link Sulfo-NHS-SS-Biotin, approaching 2 mol biotin/mol receptor)
T1 construct: extracellular domain; also called biotinylated IL-1RI; biotinylated human IL-1RI
T1 sequence (looked up): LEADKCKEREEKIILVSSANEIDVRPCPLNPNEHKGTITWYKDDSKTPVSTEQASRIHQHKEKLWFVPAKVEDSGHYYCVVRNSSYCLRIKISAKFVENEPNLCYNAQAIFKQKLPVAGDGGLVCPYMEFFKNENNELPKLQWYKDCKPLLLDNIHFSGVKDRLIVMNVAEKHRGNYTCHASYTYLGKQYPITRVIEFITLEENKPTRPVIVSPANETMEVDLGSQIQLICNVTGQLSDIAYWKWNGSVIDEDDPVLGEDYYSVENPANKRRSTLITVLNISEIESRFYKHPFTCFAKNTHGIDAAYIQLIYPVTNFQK
Test: SPR, IL-1α binding to biotinylated receptor

Kd: 1 nM
B1: human IL-1α (ligand, UniProt P01583 113-271, looked up)
chain: SAPFSFLSNVKYNFMRIIKYEFILNDALNQSIIRANDQYLTAAALHNLDEAVKFDMGAYKSSKDDAKITVILRISKTQLYVTAQDEDQPVLLKEMPEIPKTITGSETNLLFFWETHGTKNYFTSVAHPNLFIATKQDYWVCLAGGPPSITDFQILENQA
